Consider 1 substance from patent US12570698B2, “Stabilized peptides for covalent binding to target protein” (Dana-Farber Cancer Institute, Inc., priority 2015, dated 2026).

For test [1], the target named is T1, Bfl-1 (Homo sapiens, UniProt Q16548).
T1 sequence (Q16548 1-175): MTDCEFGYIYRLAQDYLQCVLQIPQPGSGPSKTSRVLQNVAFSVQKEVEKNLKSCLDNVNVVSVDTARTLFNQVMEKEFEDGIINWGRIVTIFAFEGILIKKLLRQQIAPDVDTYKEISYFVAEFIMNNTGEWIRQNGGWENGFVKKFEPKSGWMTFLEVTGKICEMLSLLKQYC
Put plainly: Bfl-1:NOXA conjugation assay (disulfide bond formation). The following applies: compared with BCL-XL and MCL-1; non-reducing SDS-PAGE. The format is binding. As for the experimental part:
Next, the impact of the C25 in NOXA was investigated. Bfl-1 and NOXA have cysteine residues within 3.5 Å of the Bfl-1 BH3 binding pocket according to modelling. […] To examine the impact of C25 in NOXA on target interaction, we examined the binding of WT NOXA SAHB and NOXA C25S SAHB to Bfl-1 and to a variety of Bfl-1 cysteine mutants. In vitro conjugation assays were performed in order to verify the formation of the disulfide bond. Global reduction of the protein and the NOXA peptides, followed by the introduction of an oxidant such as GSSG led to production of a disulfide bond, shown as a 3 kDa shift on non-reducing SDS-PAGE (FIG. 4A). […] (FIG. 4A).
Bfl-1:NOXA conjugation assay: The conjugation assay was developed to test for disulfide bond formation in a non-reducing environment. 3:1 FITC-stapled peptide:protein molar ratio was combined in the presence of DTT, then diluted and incubated with 1.2 molar excess GSSG. Samples were then run on non-reducing SDS-PAGE, scanned for fluorescence, then stained with Coomassie.

In test [2] the target is T1, Bfl-1. The experiment in a line: Liposomal release assay (Bfl-1 inhibition of BAX activation). The format is biochemical. The method, then:
The functional impact of the Bfl-1:NOXA disulfide bond formation was evaluated using competitive binding assays and liposomal release assays. […] Bfl-1 alone in the liposomal release assay inhibits activation of BAX and subsequent pore formation in the liposomes. […] (FIG. 5A and FIG. 5B).
Liposomal release assay: Large unilamellar vesicles (LUVs) with lipid composition resembling the mitochondrial outer membrane were generated, encapsulating the fluorescent dye ANTS (8-aminonaphthalene-1,3,6-trisulfonic acid, disodium salt) and the quencher DPX (p-xylene-bis-pyridinium bromide). For measurement of Bfl-1-induced inhibition of BAX, Bfl-1, BAX, tBid activator and liposomes were combined. To test effects of covalently bound Bfl-1:NOXA on BAX activation, Bfl-1 and NOXA SAHB were preincubated as described, then used at the designated concentrations. ANTS release and dequenching due to DPX dissociation (F) was measured over a period of 120 min with an M1000 Infinite plate reader (Tecan) with excitation and emission wavelengths of 355 nm and 520 nm, respectively. Plates were read following liposome lysis with 1% Triton X-100 to determine maximal release (F100). Percent ANTS/DPX release was calculated as [(F−F0)/(F100−F0)]×100.

Bridge positions count the residues as written; N and C are the ends. Square brackets hold non-standard residues; d marks the D form. Ends that are not written are not given here. S5 = C=CCCC[C@](C)(N)C(=O)O

For “NOXA SAHBA: stapled NOXA BH3 (aa 19-43) peptide, i, i+4 all-hydrocarbon staple substituting R31 and K35; SEQ ID NO:124 (AELEVECATQLR[S5]FGD[S5]LNFRQKLL; staple 13-17; not fully specified)”, the “covalent (disulfide) bond formation” value in the test with Bfl-1 [1] was “only Bfl-1 forms a covalent bond”. For the same substance, the “inhibition of anti-apoptotic effects of Bfl-1 on BAX” value with Bfl-1 [2] (Bfl-1:NOXA disulfide bond formed prior to the assay) was “almost completely erases the effects of Bfl-1”; in the test with Bfl-1 [2] (NOXA added concurrently with Bfl-1), “somewhat inhibited”.
